The target in test [1] is membrane-bound HLA-A0201 molecule on T2 cells (human). The test is described as follows: T2 cell HLA-A0201 stabilisation, 125.0 µM peptide, BB7.2 staining, flow cytometry. The conditions noted are these: remark: other sources report otherwise.
The target is the same in test [2]. The experiment in a line: T2 cell HLA-A0201 stabilisation, 125.0 µM peptide, BB7.2 staining, flow cytometry; analysis did not include the 3 hr de-stabilization step. The conditions noted are these: remark: other sources report otherwise. (In flow cytometry, cells or beads pass a laser one at a time.)

B1: CLP-316 (peptide)
peptide: KLQCVDLHV
For the molecule B1, the Fluorescence Index (FI) in test [1] was 2.7.

B2: CLP-320 (peptide)
peptide: PLYDMSLLK
Take B2: the Fluorescence Index (FI) in test [2] turned out to be 0.2.

The values above are taken from patent publication US20020132976A1, “Immunogenic peptides derived from prostate-specific antigen (PSA) and uses thereof” (priority 2000, published 2002).
